Test results published in patent US20230136252A1 (NANJING LEGEND BIOTECH, published 2023).

Tests used:
[1] = target: T1, recombinant mouse GPC2-His (mouse, UniProt Q8BKV1 22-556, limits assumed); assay: ELISA, plate coated with 2 ug/mL rmGPC2, VHH-hIgG1Fc detected with HRP goat anti-human IgG, OD450
T1 construct: Bought protein; also called murine GPC2; RD System Cat #2355-GP; not shown: His tag
T1 sequence (looked up): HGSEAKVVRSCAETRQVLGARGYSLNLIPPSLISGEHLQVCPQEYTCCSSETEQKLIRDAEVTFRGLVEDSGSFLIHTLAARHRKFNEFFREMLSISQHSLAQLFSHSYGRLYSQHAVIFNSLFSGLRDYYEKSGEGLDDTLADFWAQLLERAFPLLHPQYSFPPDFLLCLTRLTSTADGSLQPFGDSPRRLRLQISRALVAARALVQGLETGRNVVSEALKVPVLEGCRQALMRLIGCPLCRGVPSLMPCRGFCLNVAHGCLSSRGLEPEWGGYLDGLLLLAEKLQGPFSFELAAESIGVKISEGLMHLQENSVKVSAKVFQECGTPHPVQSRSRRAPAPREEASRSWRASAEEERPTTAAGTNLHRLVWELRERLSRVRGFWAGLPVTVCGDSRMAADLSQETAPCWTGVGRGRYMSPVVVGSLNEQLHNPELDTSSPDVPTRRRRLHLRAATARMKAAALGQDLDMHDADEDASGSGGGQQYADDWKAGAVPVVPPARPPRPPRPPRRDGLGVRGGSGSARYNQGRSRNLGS
Protocol: (§1) To evaluate the specificity of humanized anti-GPC2 VHH5 to recombinant human GPC2 protein, an ELISA-based binding assay was conducted to determine the differential target proteins binding of anti-GPC2 VHH5. Briefly, microplates were coated with 2 μg/mL recombinant human GPC1-His (RD System, Cat #4519-GP), GPC2-His (RD System, Cat #2304-GP), GPC3-His (ACRO, Cat #GP3-H5223), GPC4-Fc (RD System, Cat #9195-GP), GPC5-His (RD System, Cat #2607-G5/CF), GPC6-His (RD System, Cat #2845-GP) or recombinant mouse GPC2-His (RD System, Cat #2355-GP) proteins. Recombinant human protein coated plates were blocked with skim milk. Serially diluted humanized VHH-hIgG1Fc recombinant antibodies were added to each well of the plates and incubated at 4° C. for 1.5 h. Samples were further labelled with HRP-conjugated goat anti human IgG (H+L) secondary antibody (Genescript, Cat #A00166-1) and signal was developed with 3,3′,5,5′-Tetramethylbenzidine (TMB) substrate according to manufacturer's instruction. For the GPC4, VHH-His recombinant antibodies and anti-His tag secondary antibody (Genescript, Cat #A00612) were added to the GPC4-Fc coated plates instead. Optic density at 450 nm was measured by plate reader.

[2] = target: T2, recombinant human GPC1-His (human, UniProt P35052 24-530, limits assumed); assay: ELISA, plate coated with 2 ug/mL rhGPC1-his, VHH-hIgG1Fc detected with HRP goat anti-human IgG, OD450
T2 construct: Bought protein; also called RD System Cat #4519-GP; not shown: His tag
T2 sequence (looked up): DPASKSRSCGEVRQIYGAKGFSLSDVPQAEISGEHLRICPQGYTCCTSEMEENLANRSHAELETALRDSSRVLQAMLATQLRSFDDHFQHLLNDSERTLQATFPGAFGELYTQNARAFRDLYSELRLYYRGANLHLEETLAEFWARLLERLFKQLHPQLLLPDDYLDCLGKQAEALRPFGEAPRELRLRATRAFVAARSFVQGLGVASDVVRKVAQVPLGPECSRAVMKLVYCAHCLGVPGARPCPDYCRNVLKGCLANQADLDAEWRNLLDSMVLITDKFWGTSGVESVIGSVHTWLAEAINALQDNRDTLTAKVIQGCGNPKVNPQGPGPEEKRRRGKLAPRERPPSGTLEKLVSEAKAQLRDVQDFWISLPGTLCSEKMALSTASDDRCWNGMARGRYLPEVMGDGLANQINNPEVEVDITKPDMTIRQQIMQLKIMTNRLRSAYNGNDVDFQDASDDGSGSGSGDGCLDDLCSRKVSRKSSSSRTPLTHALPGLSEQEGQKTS
Protocol: as §1

[3] = target: T3, recombinant human GPC3-His (human, UniProt P51654 25-559); assay: ELISA, plate coated with 2 ug/mL rhGPC3-his, VHH-hIgG1Fc detected with HRP goat anti-human IgG, OD450
T3 construct: Bought protein; also called ACRO Cat #GP3-H5223; not shown: His tag
T3 sequence (P51654 25-559 limits assumed): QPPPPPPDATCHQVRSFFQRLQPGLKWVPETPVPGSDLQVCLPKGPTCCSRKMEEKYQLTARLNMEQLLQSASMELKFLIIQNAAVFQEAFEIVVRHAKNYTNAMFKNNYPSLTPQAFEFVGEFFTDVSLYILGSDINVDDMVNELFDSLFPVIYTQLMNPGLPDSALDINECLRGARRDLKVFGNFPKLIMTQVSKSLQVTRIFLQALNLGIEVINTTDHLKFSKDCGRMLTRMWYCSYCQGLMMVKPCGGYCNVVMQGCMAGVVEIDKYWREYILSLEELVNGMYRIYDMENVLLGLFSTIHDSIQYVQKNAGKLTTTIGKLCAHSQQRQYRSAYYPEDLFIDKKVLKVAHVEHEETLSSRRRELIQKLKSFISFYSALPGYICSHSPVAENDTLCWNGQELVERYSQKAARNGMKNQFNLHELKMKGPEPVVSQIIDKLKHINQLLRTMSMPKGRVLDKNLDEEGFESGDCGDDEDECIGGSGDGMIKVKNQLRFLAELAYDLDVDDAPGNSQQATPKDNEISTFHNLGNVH
Protocol: as §1

[4] = target: T4, recombinant human GPC5-His (human, UniProt P78333 25-551, limits assumed); assay: ELISA, plate coated with 2 ug/mL rhGPC5-his, VHH-hIgG1Fc detected with HRP goat anti-human IgG, OD450
T4 construct: Bought protein; also called RD System Cat #2607-G5/CF; not shown: His tag
T4 sequence (looked up): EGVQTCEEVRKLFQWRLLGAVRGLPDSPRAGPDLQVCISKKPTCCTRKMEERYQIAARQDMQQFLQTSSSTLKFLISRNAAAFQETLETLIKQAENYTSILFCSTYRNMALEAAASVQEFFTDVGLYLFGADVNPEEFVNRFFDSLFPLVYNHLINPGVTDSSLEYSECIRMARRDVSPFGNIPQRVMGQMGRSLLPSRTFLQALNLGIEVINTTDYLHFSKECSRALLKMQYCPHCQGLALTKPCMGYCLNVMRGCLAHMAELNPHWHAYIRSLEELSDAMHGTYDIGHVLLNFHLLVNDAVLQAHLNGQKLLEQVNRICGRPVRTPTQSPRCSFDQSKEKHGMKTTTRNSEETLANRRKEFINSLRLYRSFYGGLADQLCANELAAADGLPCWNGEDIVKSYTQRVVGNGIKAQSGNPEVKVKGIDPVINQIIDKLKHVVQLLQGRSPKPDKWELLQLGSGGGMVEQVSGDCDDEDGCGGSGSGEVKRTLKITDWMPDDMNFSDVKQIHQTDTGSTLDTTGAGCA
Protocol: as §1

Measured: binding result

B1: AS79236VH6-hIgG1Fc (Fc fusion)
chain: EVQLVESGGGLVQPGGSLRLSCAVSGYTYSSYCMAWFRQAPGKGLEGVASIDAGGRTTYVDSVKGRFTISKDNAKNSLYLQMNSLRAEDTAMYYCAVDVRTRCGGTWDGEAVYFPYWGQGTLVTVSS
notes: also called anti-GPC2 VHH-hIgG1Fc; not shown: human IgG1 Fc fragment (hIgG1Fc)
no binding (tested: about 300 nM): all assays above

B2: AS78117VH4-hIgG1Fc (Fc fusion)
chain: EVQLVESGGGLVQPGGSLRLSCIVSRYTYATYSMAWFRQAPGKGLEGVSGLDSVGATGYAESVKGRFTISRDNSKNTLYLQMNSLRAEDTAVYYCVVDPASAKVTYGSWSTPSYAYWGQGTLVTVSS
notes: as for B1
no binding (tested: about 300 nM): all assays above

B3: AS70950VH6-hIgG1Fc (Fc fusion)
chain: EVQLVESGGGLVQPGGSLRLSCAISEFTYKNTCVGWFRQAPGKGREGVAAIDSDGNTNYVDSVKGRFTISQDNSKNTVYLQMNSLRAEDTAMYYCAAGAYCGRLLLWIGNYAYWGQGTLVTVSS
notes: as for B1
no binding (tested: about 300 nM): all assays above
